PMC6743330

Biological target: PtmU3 (Streptomyces platensis CB00739)
Assay: SEC

- stoichiometry N: 2
Substance: PtmU3 (enzyme)
